Experimental data published in publication PMC5346706, “Anti-metastatic effect of the TM4SF5-specific peptide vaccine and humanized monoclonal antibody on colon cancer in a mouse lung metastasis model” (Oncotarget, 2016).

How the values were obtained:
[1] = target: T1, Myc-tagged recombinant human TM4SF5 protein (Homo sapiens (Huh-7 cDNA), UniProt O14894); assay: western blotting; whole cell lysates of HEK 293F-EV and HEK 293F-TM4SF5 cells resolved on SDS-PAGE and probed with the antibody; conditions: one partner purified
T1 construct: human transmembrane 4 superfamily member 5 protein (TM4SF5); cDNA amplified from Huh-7 mRNA with the printed primers (5' primer holds the ATG); also called Myc-tagged hTM4SF5; hTM4SF5
T1 sequence (O14894 whole entry): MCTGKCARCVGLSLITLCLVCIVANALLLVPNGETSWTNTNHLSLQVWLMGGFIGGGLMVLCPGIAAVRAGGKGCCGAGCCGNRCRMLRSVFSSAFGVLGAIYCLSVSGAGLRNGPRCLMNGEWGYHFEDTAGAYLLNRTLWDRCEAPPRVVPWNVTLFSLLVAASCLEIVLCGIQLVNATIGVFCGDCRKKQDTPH

[2] = target: cyclic peptide hTM4SF5EC2-C (human); assay: SPR; biotinylated peptide immobilized on a streptavidin chip, increasing amounts of antibody applied; SR7500DC Reichert SPR system

B1: mouse anti-TM4SF5 monoclonal antibody mEC2-C (antibody, V domains shown)
VH: QVQLEESGPGLVAPSQSLSIICTVSGFSLTSYGVTWVRQPPGKGLEWLGVIWSDGSTNYQSALISRLTISRDNSKSQAFLKLNSLQTDDTATYYCARPSNYYYFDYWGQGTTLTVSS
VL: DIVMTQSPSSLAVSAGERVTLSCKSSQSLFDRRTRKTYLAWYQQKPGQSPKLLISWASTRESGVPDRFTGSGSGTDFTLTISSVQAEDLAVYYCKQSYNLFTFGGGTKLEIK
notes: VH of mEC2-C (mouse VH2 subtype); mouse IgG3 heavy chain constant region; VL of mEC2-C (mouse Vk8 subtype); mouse kappa light chain constant region (cloned with kappa chain primers); Mouse IgG3, kappa; also called mEC2-2; source: hybridoma, purified from ascitic fluid (Protein A column)
In the case of B1, the binding result [1] is reported as “binds”, the Kd [2] is reported as under 0.48 nM and the koff [2] is reported as under 1e-05 s⁻¹.
